# Like-named read-outs stand apart in the source and are kept apart here. Bridge positions count the residues as written; N and C are the ends. Square brackets hold non-standard residues; d marks the D form. Ends that are not written are not given here. Abu(4-SO3H) = N[C@@H](CCS(=O)(=O)O)C(=O)O; PhLac = O=C(O)[C@@H](O)Cc1ccccc1
# Tests used:
# Receptor (human) = Receptor (human) (UniProt P47871); experiment: receptor binding competition
# human glucagon receptor [1] = molecular target: T1, human glucagon receptor (human, UniProt P47871 26-477); experiment: SPA competition vs 125I-glucagon, receptor membranes
# T1 construct: whole, on cells; cAMP assay: transfected HEK293 cells
# T1 sequence (P47871 26-477): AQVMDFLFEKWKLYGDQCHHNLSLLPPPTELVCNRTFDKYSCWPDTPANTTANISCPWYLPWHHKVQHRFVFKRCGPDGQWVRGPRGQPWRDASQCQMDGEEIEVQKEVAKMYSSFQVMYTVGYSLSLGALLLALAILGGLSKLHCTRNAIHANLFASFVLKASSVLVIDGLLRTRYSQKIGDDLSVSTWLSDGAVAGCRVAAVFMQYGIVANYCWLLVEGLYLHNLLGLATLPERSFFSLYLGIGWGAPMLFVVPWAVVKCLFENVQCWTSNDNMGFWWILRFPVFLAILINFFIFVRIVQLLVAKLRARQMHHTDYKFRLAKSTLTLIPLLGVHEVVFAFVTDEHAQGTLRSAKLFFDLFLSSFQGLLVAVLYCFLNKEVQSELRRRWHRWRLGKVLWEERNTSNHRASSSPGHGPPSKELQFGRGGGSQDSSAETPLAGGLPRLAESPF
# human glucagon receptor [2] = molecular target: T1, human glucagon receptor; experiment: cell-based or functional assay
# human glucagon receptor [3] = molecular target: T1, human glucagon receptor; experiment: cell-based or functional assay; remark: listed apart in the source
# human GLP-1 receptor [4] = molecular target: T2, human GLP-1 receptor (human, UniProt P43220 24-463); experiment: cell-based or functional assay
# human glucagon receptor [5] = molecular target: T1, human glucagon receptor; experiment: cell-based or functional assay; remark: listed apart in the source
# human GLP-1 receptor [6] = molecular target: T2, human GLP-1 receptor; experiment: cell-based or functional assay; remark: listed apart in the source
# human glucagon receptor [7] = molecular target: T1, human glucagon receptor; experiment: cell-based or functional assay; remark: listed apart in the source
# human GLP-1 receptor [8] = molecular target: T2, human GLP-1 receptor; experiment: cell-based or functional assay; remark: listed apart in the source
# human glucagon receptor [9] = molecular target: T1, human glucagon receptor; experiment: cell-based or functional assay; remark: listed apart in the source
# human GLP-1 receptor [10] = molecular target: T2, human GLP-1 receptor; experiment: cell-based or functional assay; remark: listed apart in the source
# human glucagon receptor [11] = molecular target: T1, human glucagon receptor; experiment: cell-based or functional assay; remark: listed apart in the source
# human glucagon receptor [12] = molecular target: T1, human glucagon receptor; experiment: SPA competition vs 125I-glucagon, receptor membranes; remark: listed apart in the source
# human glucagon receptor [13] = molecular target: T1, human glucagon receptor; experiment: as above; remark: listed apart in the source
# Chain of Receptor (human) (P47871 26-477): as above
molecule,measurement,setting,value
"[2-Nal6, E9]G(6-29)-NH2",IC50,Receptor (human),95.2 nM
"[3,4-2(F)-F6, E9]G(6-29)-NH2",IC50,Receptor (human),36.7 nM
"[BMA6, E9]G(6-29)-NH2",IC50,Receptor (human),80.6 nM
"[MCA6, E9]G(6-29)-NH2",IC50,Receptor (human),114 nM
"[Ac-F6, E9]G(6-29)-NH2",IC50,Receptor (human),37.1 nM
"[PhLac]TS[Abu(4-SO3H)]YSKYLDSRRAQDFVQWLMNT-NH2 [[PLA^6, hCys(SO3)^9]Glucagon(aa6-29)-NH2]",IC50,human glucagon receptor [1],14.2 nM
same,"IC50 (cAMP, inhibit 0.2 nM Glucagon)",human glucagon receptor [2],40.2 nM
"[PhLac]TSEYSKYLDSRRAQDFVQWLMNTGPSSGAPPPS-NH2 (N-terminus assumed; SMILES CSCC[C@H](NC(=O)[C@H](CC(C)C)NC(=O)[C@H](Cc1c[nH]c2ccccc12)NC(=O)[C@H](CCC(N)=O)NC(=O)[C@@H](NC(=O)[C@H](Cc1ccccc1)NC(=O)[C@H](CC(=O)O)NC(=O)[C@H](CCC(N)=O)NC(=O)[C@H](C)NC(=O)[C@H](CCCNC(=N)N)NC(=O)[C@H](CCCNC(=N)N)NC(=O)[C@H](CO)NC(=O)[C@H](CC(=O)O)NC(=O)[C@H](CC(C)C)NC(=O)[C@H](Cc1ccc(O)cc1)NC(=O)[C@H](CCCCN)NC(=O)[C@H](CO)NC(=O)[C@H](Cc1ccc(O)cc1)NC(=O)[C@H](CCC(=O)O)NC(=O)[C@H](CO)NC(=O)[C@@H](NC(=O)[C@@H](O)Cc1ccccc1)[C@@H](C)O)C(C)C)C(=O)N[C@@H](CC(N)=O)C(=O)N[C@H](C(=O)NCC(=O)N1CCC[C@H]1C(=O)N[C@@H](CO)C(=O)N[C@@H](CO)C(=O)NCC(=O)N[C@@H](C)C(=O)N1CCC[C@H]1C(=O)N1CCC[C@H]1C(=O)N1CCC[C@H]1C(=O)N[C@@H](CO)C(N)=O)[C@@H](C)O) [[PLA^6, E^9]Glucagon (aa6-29 + CEX)-NH2]",IC50,human glucagon receptor [1],40.3 nM
same,"IC50 (cAMP, inhibit 0.1 nM Glucagon)",human glucagon receptor [2],24.8 nM
"[PhLac]TSDYSKYLDERRAKDFVEWLMDT-NH2 (lactam 15-19; N-terminus assumed; SMILES CSCC[C@H](NC(=O)[C@H](CC(C)C)NC(=O)[C@H](Cc1c[nH]c2ccccc12)NC(=O)[C@@H]1CCC(=O)NCCCC[C@H](NC(=O)[C@H](C)NC(=O)[C@H](CCCNC(=N)N)NC(=O)[C@H](CCCNC(=N)N)NC(=O)[C@H](CCC(=O)O)NC(=O)[C@H](CC(=O)O)NC(=O)[C@H](CC(C)C)NC(=O)[C@H](Cc2ccc(O)cc2)NC(=O)[C@H](CCCCN)NC(=O)[C@H](CO)NC(=O)[C@H](Cc2ccc(O)cc2)NC(=O)[C@H](CC(=O)O)NC(=O)[C@H](CO)NC(=O)[C@@H](NC(=O)[C@@H](O)Cc2ccccc2)[C@@H](C)O)C(=O)N[C@@H](CC(=O)O)C(=O)N[C@@H](Cc2ccccc2)C(=O)N[C@@H](C(C)C)C(=O)N1)C(=O)N[C@@H](CC(=O)O)C(=O)N[C@H](C(N)=O)[C@@H](C)O) [[PLA6, E16, K20E24(lactam), D28]G(6-29)]",Glucagon IC50,human glucagon receptor [3],74 nM
same,GLP-1 EC50,human GLP-1 receptor [4],239 nM
same,Glucagon antagonism IC50 (inhibit 0.2-0.8 nM glucagon),human glucagon receptor [5],74.4 nM
same,GLP-1 agonism EC50,human GLP-1 receptor [6],240 nM
"[PhLac]TSDYSKYLDERRAQDFVEWLMKT-NH2 (lactam 19-23; not fully specified) [[PLA6, E16, E24K28(lactam)]G(6-29)]",Glucagon IC50,human glucagon receptor [3],22 nM
same,GLP-1 EC50,human GLP-1 receptor [4],289 nM
same,Glucagon antagonism IC50 (inhibit 0.2-0.8 nM glucagon),human glucagon receptor [5],22.4 nM
same,GLP-1 agonism EC50,human GLP-1 receptor [6],289 nM
"[PhLac]TSDYSKYLDERRAKEFVQWLMDT-NH2 (lactam 11-15; N-terminus assumed; SMILES CSCC[C@H](NC(=O)[C@H](CC(C)C)NC(=O)[C@H](Cc1c[nH]c2ccccc12)NC(=O)[C@H](CCC(N)=O)NC(=O)[C@@H](NC(=O)[C@H](Cc1ccccc1)NC(=O)[C@H](CCC(=O)O)NC(=O)[C@@H]1CCCCNC(=O)CC[C@H](NC(=O)[C@H](CC(=O)O)NC(=O)[C@H](CC(C)C)NC(=O)[C@H](Cc2ccc(O)cc2)NC(=O)[C@H](CCCCN)NC(=O)[C@H](CO)NC(=O)[C@H](Cc2ccc(O)cc2)NC(=O)[C@H](CC(=O)O)NC(=O)[C@H](CO)NC(=O)[C@@H](NC(=O)[C@@H](O)Cc2ccccc2)[C@@H](C)O)C(=O)N[C@@H](CCCNC(=N)N)C(=O)N[C@@H](CCCNC(=N)N)C(=O)N[C@@H](C)C(=O)N1)C(C)C)C(=O)N[C@@H](CC(=O)O)C(=O)N[C@H](C(N)=O)[C@@H](C)O) [[PLA6, E16K20(lactam), E21, D28] G(6-29)]",Glucagon antagonism IC50 (inhibit 0.2-0.8 nM glucagon),human glucagon receptor [5],8.6 nM
same,GLP-1 agonism EC50,human GLP-1 receptor [6],11.1 nM
"SQGT[PhLac]TSDYSKYLDERRAKDFVQWLMDT-NH2 (lactam 15-19; also: ester (depsipeptide) bond Thr5-PLA6) [[S2Q3-O-PLA6, D9, E16K20(Lactam), D28] G(2-29)]",Glucagon antagonism IC50 (inhibit 0.8 nM glucagon),human glucagon receptor [7],20.9 nM
same,GLP-1 agonism EC50,human GLP-1 receptor [8],112 nM
same,Glucagon antagonism IC50 (inhibit 0.8 nM glucagon),human glucagon receptor [9],3.14 nM
same,GLP-1 agonism EC50,human GLP-1 receptor [10],45.7 nM
"AEGT[PhLac]TSDYSKYLDERRAKDFVQWLMDT-NH2 (lactam 15-19; also: PLA6 linked to Thr5 by an ester bond (depsipeptide)) [[A2E3-O-PLA6, D9, E16K20(Lactam), D28] G(2-29)]",Glucagon antagonism IC50 (inhibit 0.8 nM glucagon),human glucagon receptor [7],21.8 nM
same,GLP-1 agonism EC50,human GLP-1 receptor [8],18 nM
same,Glucagon antagonism IC50 (inhibit 0.8 nM glucagon),human glucagon receptor [9],4.68 nM
same,GLP-1 agonism EC50,human GLP-1 receptor [10],14 nM
"HAEGT[PhLac]TSDYSKYLDERRAKDFVQWLMDT-NH2 (lactam 16-20; also: PLA6 linked to Thr5 by an ester bond (depsipeptide)) [[H1A2E3-O-PLA6, D9, E16K20(Lactam), D28] G(1-29)]",Glucagon antagonism IC50 (inhibit 0.8 nM glucagon),human glucagon receptor [9],9.65 nM
same,GLP-1 agonism EC50,human GLP-1 receptor [10],6.2 nM
"SQGTFTSEYSKYLDSRRAQDFVQFLLNT-NH2 [[desHis^1, Glu^9, Phe^25, Leu^27]Glucagon-NH2]",cAMP Induction EC50,human glucagon receptor [11],81 nM
same,IC50,human glucagon receptor [12],12.6 nM
"SQLTFTSEYSKYLDSRRAQDFVQWLMNT-NH2 (also called Cmpd) [[desHis^1, Leu^4, Glu^9] Glucagon-NH2]",cAMP Induction EC50,human glucagon receptor [11],318 nM
same,cAMP Inhibition IC50,human glucagon receptor [11],102 nM
same,IC50,human glucagon receptor [12],36.9 nM
"SQGTTSDYSKYLDSRRAQDFVQWLMNT-NH2 (His1 and Phe6 deleted; also called Cmpd) [[desHis^1, desPhe^6] Glucagon-NH2]",cAMP Induction EC50,human glucagon receptor [11],1180 nM
same,IC50,human glucagon receptor [12],130 nM
"SQGTFTSXYSKYLDSRRAQDFVQWLMNT (homoglutamic acid (hGlu) at position 9; C-terminal amide, also called peptide no) [[hGlu^9] Glucagon(aa2-29)-NH2]",IC50,human glucagon receptor [13],8.1 nM
"SQGTFTS[Abu(4-SO3H)]YSKYLDSRRAQDFVQFLLNT-NH2 (N-terminus assumed; SMILES CC(C)C[C@H](NC(=O)[C@H](Cc1ccc(O)cc1)NC(=O)[C@H](CCCCN)NC(=O)[C@H](CO)NC(=O)[C@H](Cc1ccc(O)cc1)NC(=O)[C@H](CCS(=O)(=O)O)NC(=O)[C@H](CO)NC(=O)[C@@H](NC(=O)[C@H](Cc1ccccc1)NC(=O)[C@@H](NC(=O)CNC(=O)[C@H](CCC(N)=O)NC(=O)[C@@H](N)CO)[C@@H](C)O)[C@@H](C)O)C(=O)N[C@@H](CC(=O)O)C(=O)N[C@@H](CO)C(=O)N[C@@H](CCCNC(=N)N)C(=O)N[C@@H](CCCNC(=N)N)C(=O)N[C@@H](C)C(=O)N[C@@H](CCC(N)=O)C(=O)N[C@@H](CC(=O)O)C(=O)N[C@@H](Cc1ccccc1)C(=O)N[C@H](C(=O)N[C@@H](CCC(N)=O)C(=O)N[C@@H](Cc1ccccc1)C(=O)N[C@@H](CC(C)C)C(=O)N[C@@H](CC(C)C)C(=O)N[C@@H](CC(N)=O)C(=O)N[C@H](C(N)=O)[C@@H](C)O)C(C)C, also called Cmpd; 4B) [[desHis^1, hCys^9(SO3-), Phe^25, Leu^27] Glucagon-NH2]",cAMP Induction EC50,human glucagon receptor [11],430 nM
same,IC50,human glucagon receptor [12],13.9 nM
"SQGTTS[Abu(4-SO3H)]YSKYLDSRRAQDFVQFLLNT-NH2 (N-terminus assumed; SMILES CC(C)C[C@H](NC(=O)[C@H](Cc1ccc(O)cc1)NC(=O)[C@H](CCCCN)NC(=O)[C@H](CO)NC(=O)[C@H](Cc1ccc(O)cc1)NC(=O)[C@H](CCS(=O)(=O)O)NC(=O)[C@H](CO)NC(=O)[C@@H](NC(=O)[C@@H](NC(=O)CNC(=O)[C@H](CCC(N)=O)NC(=O)[C@@H](N)CO)[C@@H](C)O)[C@@H](C)O)C(=O)N[C@@H](CC(=O)O)C(=O)N[C@@H](CO)C(=O)N[C@@H](CCCNC(=N)N)C(=O)N[C@@H](CCCNC(=N)N)C(=O)N[C@@H](C)C(=O)N[C@@H](CCC(N)=O)C(=O)N[C@@H](CC(=O)O)C(=O)N[C@@H](Cc1ccccc1)C(=O)N[C@H](C(=O)N[C@@H](CCC(N)=O)C(=O)N[C@@H](Cc1ccccc1)C(=O)N[C@@H](CC(C)C)C(=O)N[C@@H](CC(C)C)C(=O)N[C@@H](CC(N)=O)C(=O)N[C@H](C(N)=O)[C@@H](C)O)C(C)C, His1 and Phe6 deleted; also called Cmpd; 5B) [[desHis^1, desPhe^6, hCys^9(SO3-), Phe^25, Leu^27] Glucagon-NH2]",cAMP Induction EC50,human glucagon receptor [11],3210 nM
same,cAMP Inhibition IC50,human glucagon receptor [11],9220 nM
same,IC50,human glucagon receptor [12],53.3 nM

# Source: patent publication US20110098217A1 (INDIANA UNIVERSITY RESEARCH AND TECHNOLOGY, published 2011)
